Measured values from patent US12385058B2, “Herbicide tolerance protein, encoding gene thereof and use thereof” (Beijing Dabeinong Biotechnology Co., Ltd., priority 2018, dated 2025).
Positions count from the first letter of the chain named.

B1: ALT02M3: herbicide tolerant protein, SEQ ID NO: 31; ALT02 mutated at positions 44, 45, 140, 142 and 146 (protein)
chain: METDNVELAQSKRKVVLAEQGSFYIGGRTVTGPGKFDPSKPVIRASNEGATFYINQMYVNFQAPVRPRGLPLVFWHGGGLTGHIWESTPDGRPGFQTLFVQDRHTVYTIDQPGRGRGNIPTFNGPFGQLEEESIVNTVTANVSKERAWVRDRLGPAPGQFFENSQFPRGYEDNYFKEMGFSPSISSDEIVDAVVKLVTHIGPCVLVTHSASGVLGMRVATHAKNVRGIVAYEPATSIFPKGKVPEIPPLADKKSQIFPPFEIQESYFKKLAKIPIQFVFGDNIPKNPKSAYWFLDWWRVTRYAHSLSLEAINKLGGQASLLDLPTAGLRGNTHFPFTDRNNVQVASLLSDFLGKHGLDQNESKLAAALE
modifications: the amino acid sequence of the ALT02M3
B2: ALT04M1: herbicide tolerant protein, SEQ ID NO: 55; ALT04 with glycine to alanine at position 131 (protein)
chain: MSKRKVVLAEQGSFYIGGRTVTGPGKFDPSKPVIPYSNEGATFYINQMYVNFQAPVRPRGLPLVFWHGGGLTGHIWESTPDGRPGFQTLFVQDRHTVYTIDQPGRGRGNIPTFNGPFGQLEEESIVNTVTANSSKEGAWVRDRLGPAPGQFFENSQFPRGYEDNYFKEMGFSPSISSDEIVDAVVKLVTHIGPCVLVTHSASGVLGMRVATHAKNVRGIVAYEPATSIFPKGKVPEIPPLADKKSQIFPPFEIQESYFKKLAKIPIQFVFGDNIPKNPKSAYWFLDWWRVTRYAHSLSLEAINKLGGQASLLDLPTAGLRGNTHFPFTDRNNVQVASLLSDFLGKHGLDQ
modifications: the amino acid sequence of the ALT04M1
B3: ALT04M2: herbicide tolerant protein, SEQ ID NO: 59; ALT04 with serine to valine at position 133 (protein)
chain: B2 chain with A131G, S133V
modifications: the amino acid sequence of the ALT04M2
B4: ALT03M1: herbicide tolerant protein, SEQ ID NO: 39; ALT03 with glycine to alanine at position 140 (protein)
chain: METDNVELAQSKRKVVLAEQGSFYIGGRTVTGPGKFDPSKPVIPYSNEGATFYINQMYVNFQAPVRPRGLPLVFWHGGGLTGHIWESTPDGRPGFQTLFVQDRHTVYTIDQPGRGRGNIPTFNGPFGQLEEESIVNTVTANSSKEGAWVRDRLGPAPGQFFENSQFPRGYEDNYFKEMGFSPSISSDEIVDAVVKLVTHIGPCVLVTHSASGVLGMRVATHAKNVRGIVAYEPATSIFPKGKVPEIPPLADKKSQIFPPFEIQESYFKKLAKIPIQFVFGDNIPKNPKSAYWFLDWWRVTRYAHSLSLEAINKLGGQASLLDLPTAGLRGNTHFPFTDRNNVQVASLLSDFLGKHGLDQNES
modifications: the amino acid sequence of the ALT03M1
B5: ALT03M2: herbicide tolerant protein, SEQ ID NO: 43; ALT03 with serine to valine at position 142 (protein)
chain: B4 chain with A140G, S142V
modifications: the amino acid sequence of the ALT03M2
B6: ALT03M3: herbicide tolerant protein, SEQ ID NO: 47; ALT03 mutated at positions 44, 45, 140, 142 and 146 (protein)
chain: B4 chain with P44R, Y45A, S142V, G146R
modifications: The amino acid sequence of the ALT03M3
B7: ALT02: ALT02 protein (369 amino acids), SEQ ID NO: 19; unmutated herbicide tolerant protein (protein)
chain: B1 chain with R44P, A45Y, A140G, V142S, R146G
modifications: the amino acid sequence of ALT02

experiment: not given; type: biochemical; conditions: not given
Protocol: (§1) Each reaction was timed beginning with the addition of reactive enzyme, and was terminated with 1 mL of dichloromethane. The organic phase after delamination was dehydrated with anhydrous sodium sulfate.
(§2) The above dehydrated reaction solution was blown dry with nitrogen and filtered by adding 1 mL of methanol, and 20 μL of the filtrate was subjected to liquid chromatography-mass spectrometry (LC-MS). High performance liquid chromatography (HPLC) conditions were as follows: mobile phase being methanol:water (80:20, V/V), Zorbax XDB-C18 chromatographic column (3.5 μm, 2.1×50 mm, Agilent, USA), column temperature being room temperature, UV detector, with a detection wavelength of 255 nm, a sample injection volume of 20 μL, and a flow rate of 0.25 mL/min. The primary ion mass spectrometry conditions were as follows: ion detection mode being multi-reactive ion detection; ion polarity being negative ion; ionization mode being electrospray ionization; a capillary voltage of 4000 volts; a dry gas temperature of 330° C., a flow rate of 10 L/min, an atomizing gas pressure of 35 psi, a collision voltage of 135 volts; and a mass scan range of 300-500 m/z. The secondary ion mass spectrometry conditions were as follows: a collision voltage of 90 volts; a mass scanning range of 30-400 m/z, and other conditions being the same as those of the primary ion mass spectrometry. It was identified by LC-MS that the metabolite of thifensulfuron-methyl was thiophene sulfonic acid, and the metabolite of metsulfuron-methyl, chlorimuron-ethyl, bensulfuron-methyl, sulfometuron-methyl or tribenuron-methyl was its corresponding sulfonic acid. The amount of the generated thiophene sulfonic acid (metabolite) was detected using high performance liquid chromatography (HPLC).

For B1, the “efficiency of degrading chlorimuron-ethyl, fold of ALT02” value was 14.2 fold.

For B1, the “efficiency of degrading metsulfuron-methyl, fold of ALT02” value was 2.1 fold.

Point of comparison: B2, “efficiency of degrading bensulfuron-methyl, fold of ALT04” value 1.9 fold. Against it:
- B3 — lower, 1.2 fold

Point of comparison: B2, “efficiency of degrading thifensulfuron-methyl, fold of ALT04” value 2.8 fold. Against it:
- B3 — higher, 3.3 fold

Point of comparison: B4, “efficiency of degrading bensulfuron-methyl, fold of ALT03” value 2.1 fold. Against it:
- B5 — lower, 1.3 fold

Point of comparison: B4, “efficiency of degrading thifensulfuron-methyl, fold of ALT03” value 3.0 fold. Against it:
- B5 — higher, 3.5 fold

With B6 the “efficiency of degrading chlorimuron-ethyl, fold of ALT03” value was 13.0 fold.

For B6, the “efficiency of degrading chlorimuron-ethyl, fold of ALT04” value was 12.4 fold.

For B6, the “efficiency of degrading metsulfuron-methyl, fold of ALT03” value was 1.9 fold.

With B6 the “efficiency of degrading metsulfuron-methyl, fold of ALT04” value was 1.8 fold.

same assay, conditions: 0.2 μg enzyme, 0.2 mM substrate, pH 7.0, 30° C., 20 min

Point of comparison: B5, “specific enzyme activity, bensulfuron-methyl” value 2.3 µmol/min/mg. Against it:
- B1 — lower, 0.7 µmol/min/mg
- B7 — lower, 1.8 µmol/min/mg
- B2 — higher, 3.5 µmol/min/mg
- B3 — lower, 2.2 µmol/min/mg
- B4 — higher, 3.7 µmol/min/mg
- B6 — lower, 0.6 µmol/min/mg

Point of comparison: B7, “specific enzyme activity, chlorimuron-ethyl” value 2.8 µmol/min/mg. Against it:
- B1 — higher, 40.3 µmol/min/mg
- B2 — higher, 9.4 µmol/min/mg
- B3 — higher, 8.1 µmol/min/mg
- B4 — higher, 9.9 µmol/min/mg
- B5 — higher, 8.6 µmol/min/mg
- B6 — higher, 36.5 µmol/min/mg

Point of comparison: B5, “specific enzyme activity, metsulfuron-methyl” value 1.1 µmol/min/mg. Against it:
- B1 — higher, 4.4 µmol/min/mg
- B7 — higher, 2.1 µmol/min/mg
- B2 — higher, 2.0 µmol/min/mg
- B3 — the same, 1.1 µmol/min/mg
- B4 — higher, 2.1 µmol/min/mg
- B6 — higher, 4.0 µmol/min/mg

Point of comparison: B6, “specific enzyme activity, thifensulfuron-methyl” value 16.9 µmol/min/mg. Against it:
- B1 — higher, 18.7 µmol/min/mg
- B7 — higher, 28.8 µmol/min/mg
- B2 — higher, 80.9 µmol/min/mg
- B3 — higher, 95.4 µmol/min/mg
- B4 — higher, 85.4 µmol/min/mg
- B5 — higher, 100.7 µmol/min/mg

Point of comparison: B1, “specific enzyme activity, tribenuron-methyl” value 3.5 µmol/min/mg. Against it:
- B7 — lower, 1.9 µmol/min/mg
- B2 — lower, 2.8 µmol/min/mg
- B3 — higher, 9.7 µmol/min/mg
- B4 — lower, 2.9 µmol/min/mg
- B5 — higher, 10.3 µmol/min/mg
- B6 — lower, 3.1 µmol/min/mg

experiment: Degradation of sulfometuron-methyl by purified herbicide tolerant proteins (enzymatic activity, HPLC); type: biochemical; conditions: 0.2 μg enzyme, 0.2 mM substrate, pH 7.0, 30° C., 20 min
Protocol: as §1, §2

Point of comparison: B1, “specific enzyme activity, sulfometuron-methyl” value 1.2 µmol/min/mg. Against it:
- B7 — higher, 2.0 µmol/min/mg
- B2 — higher, 4.9 µmol/min/mg
- B3 — higher, 3.2 µmol/min/mg
- B4 — higher, 5.1 µmol/min/mg
- B5 — higher, 3.3 µmol/min/mg
- B6 — lower, 1.0 µmol/min/mg
